# Data from paper PMC5294454, “Enhanced delignification of steam-pretreated poplar by a bacterial laccase” (Scientific Reports, 2017).
# B1: sLac (Amycolatopsis sp. ATCC 39116) (protein)
# chain: QGTTRRITMYAEKISDELYGYGLAPGGATVPGPVLEMWEGDTLEIDLVNTTDRVLSLHPHGVDYDVNSDGTLMNGSAVMPGQTRRYTWRSHVGYRRADGSWAEGTAGYWHYHDHAMGTEHGTEGVLKGLYGALVVRRQGDLLPKRQFTVVFNDMMINNRAHHDAPTFEANLGERVEWIAIGHGSNFHTFHLHGHRWLDNRTGMRTSEYDPSPLIDIKDLNPGVSFGFQVIAGEGVGPGMWMYHCHVQNHSDMGMAGMFLVRNADGTMPAGVHEH
# notes: residues 6-279, putative N-terminal TAT signal removed, TEV-cleavable N-terminal poly-His tag (cleavage not mentioned), pET15a(+), E. coli Rosetta BL21(DE3)pLysS; forward primer […] encodes MQGTTRRI; reverse primer encodes C-terminal ...VHEH
# Legend:
# purified protein [1] = substrate: CCn1c(=NN=c2sc3cc(S(=O)(=O)O)ccc3n2CC)sc2cc(S(=O)(=O)O)ccc21; assay: purified protein; details: O2, 50 mM sodium acetate, pH 5, 30 °C, 0.1 μM sLac
# purified protein [2] = substrate: COc1cccc(OC)c1O; assay: purified protein; assay type: biochemical, Amycolatopsis sp. ATCC 39116; details: O2, 50 mM Tris-HCl, pH 8, 30 °C, 0.1 μM sLac
protein,measurement,setting,value
B1,Km,purified protein [1],500 ± 40 µM
same,kcat,purified protein [1],7 ± 0.3 s⁻¹
same,Km,purified protein [2],3000 ± 100 µM
same,kcat,purified protein [2],0.5 ± 0.07 s⁻¹
